How the values were obtained:
HeLa Kyoto [1] = assay: solubility in G1/S (NP-40 vs SDS abundance) (log2 ratio); higher = more soluble; conditions: cell cycle stage: G1/S
HeLa Kyoto [2] = assay: melting temperature (median over replicates), in situ; higher = more thermally stable
HeLa Kyoto [3] = assay: solubility change mitosis vs G1/S (difference of NP-40 vs SDS log2 ratios) (log2 ratio difference); higher = more soluble in mitosis
HeLa Kyoto [4] = assay: thermal stability score vs G1/S (z-score of summed log2 fold changes over temperatures); higher = more thermally stable than in G1/S
[5] = cell cycle stage: early G1 (4.5 h after nocodazole release)
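Throughout, for melting temperature (median over replicates), in situ: HeLa Kyoto cells synchronized by double thymidine or nocodazole block, proteins quantified by TMT10plex mass spectrometry, three independent biological replicates.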
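Throughout, for solubility change mitosis vs G1/S (difference of NP-40 vs SDS log2 ratios): synchronized HeLa Kyoto cells (double thymidine block for G1/S, nocodazole release for mitosis), protein amounts in NP-40 versus SDS lysates quantified by mass spectrometry, three biological replicates.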
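Throughout, for solubility in G1/S (NP-40 vs SDS abundance): HeLa Kyoto cells arrested at G1/S by double thymidine block, proteins quantified by TMT10plex mass spectrometry in mild NP-40 versus SDS extracts, three biological replicates.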
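Throughout, for thermal stability score vs G1/S (z-score of summed log2 fold changes over temperatures): synchronized HeLa Kyoto cells, proteins quantified by TMT10plex mass spectrometry, three biological replicates, mitosis taken 0.5 h after nocodazole release, G1/S directly after double thymidine block.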

Sequence of CBX1 (chain, as listed by the source): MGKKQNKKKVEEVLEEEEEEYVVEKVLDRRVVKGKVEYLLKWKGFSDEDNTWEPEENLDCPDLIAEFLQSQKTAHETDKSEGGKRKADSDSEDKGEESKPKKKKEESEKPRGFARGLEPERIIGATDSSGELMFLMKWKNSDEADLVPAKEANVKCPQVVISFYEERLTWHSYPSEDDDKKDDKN
Sequence of RBPJ (chain, as listed by the source): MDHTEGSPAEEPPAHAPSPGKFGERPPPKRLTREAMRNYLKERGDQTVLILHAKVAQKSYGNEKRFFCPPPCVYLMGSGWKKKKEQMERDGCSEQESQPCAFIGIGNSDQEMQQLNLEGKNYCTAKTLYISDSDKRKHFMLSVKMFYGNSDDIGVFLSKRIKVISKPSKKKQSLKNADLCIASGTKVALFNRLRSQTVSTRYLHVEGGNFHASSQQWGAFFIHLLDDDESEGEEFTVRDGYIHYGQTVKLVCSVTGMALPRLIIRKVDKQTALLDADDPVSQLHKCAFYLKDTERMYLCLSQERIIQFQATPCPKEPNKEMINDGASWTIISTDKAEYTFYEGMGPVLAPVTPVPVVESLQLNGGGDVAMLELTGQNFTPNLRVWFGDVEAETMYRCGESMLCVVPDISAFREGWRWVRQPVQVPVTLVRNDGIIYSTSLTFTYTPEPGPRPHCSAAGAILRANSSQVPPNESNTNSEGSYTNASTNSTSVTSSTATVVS

Substance | solubility in G1/S (log2) (HeLa Kyoto [1]) | melting temperature (HeLa Kyoto [2]; cell cycle stage: mitosis) | solubility change mitosis (log2) (HeLa Kyoto [3]) | thermal stability score (HeLa Kyoto [4]; [5]) | thermal stability score (HeLa Kyoto [4]; cell cycle stage: mitosis) | melting temperature (HeLa Kyoto [2]; cell cycle stage: G1/S)
MLGPHLPPPPLAPSEGRPTPCAFQIPDGSYRCLALEAEESSGEEGLQGEVGPTDLEEDEGVSRSGDDSACRVTQGTPQLPKALGIQPPSCSREEQGASQHDDRASQDWDVVKAGQMMTASPSPGPGPRVAQKPALGRSTSLTEKDLKEAKARSQQIAAQLTTPPSSNSRGVQLFNRRRQRVNEFTLESHGQRGQKPSQESLRVLPSSLPGHAPGLSLSSTSLPEPGPPRHPSPQSPDRGVPGHSMEGYSEEASLLRHLEKVASEEEEVPLVVYLKENAALLTANGLHLSQNREAQQSSPAPPPAEVHSPAADVNQNLASPSATLTTPTSNSSHNPPATDVNQNPPATVVPQSLPLSSIQQNSSEAQLPSNGTGPASKPSTLCADGQPQAPAEEVRCSTLLIDKVSTPATTTSTFSREATLIPSSRPPASDFMSSSLLIDIQPNTLVVSADQEMSGRAAATTPTKVYSEVHFTLAKPPSVVNRTARPFGIQAPGGTSQMERSPMLERRHFGEKAPAPQPPSLPDRSPRPQRHIMSRSPMVERRMMGQRSPASERRPLGNFTAPPTYTETLSTAPLASWVRSPPSYSVLYPSSDPKSSHLKGQAVPASKTGILEESMARRGSRKSMFTFVEKPKVTPNPDLLDLVQTADEKRRQRDQGEVGVEEEPFALGAEASNFQQEPAPRDRASPAAAEEVVPEWASCLKSPRIQAKPKPKPNQNLSEASGKGAELYARRQSRMEKYVIESSSHTPELARCPSPTMSLPSSWKYPTNAPGAFRVASRSPARTPPASLYHGYLPENGVLRPEPTKQPPYQLRPSLFVLSPIKEPAKVSPRAASPAKPSSLDLVPNLPKGALPPSPALPRPSRSSPGLYTSPGQDSLQPTAVSPPYGGDISPVSPSRAWSPRAKQAPRPSFSTRNAGIEAQVWKPSFCFK [SYNPO] | -1.65 | 52.8 °C | 1.62 | -0.595 | -3 | –
MSEPIRVLVTGAAGQIAYSLLYSIGNGSVFGKDQPIILVLLDITPMMGVLDGVLMELQDCALPLLKDVIATDKEDVAFKDLDVAILVGSMPRREGMERKDLLKANVKIFKSQGAALDKYAKKSVKVIVVGNPANTNCLTASKSAPSIPKENFSCLTRLDHNRAKAQIALKLGVTANDVKNVIIWGNHSSTQYPDVNHAKVKLQGKEVGVYEALKDDSWLKGEFVTTVQQRGAAVIKARKLSSAMSAAKAICDHVRDIWFGTPEGEFVSMGVISDGNSYGVPDDLLYSFPVVIKNKTWKFVEGLPINDFSREKMDLTAKELTEEKESAFEFLSSA [MDH1] | 0.43 | 56.8 °C | -0.111 | -0.848 | 0.036 | 57.2 °C
MSHGHSHGGGGCRCAAEREEPPEQRGLAYGLYLRIDLERLQCLNESREGSGRGVFKPWEERTDRSKFVESDADEELLFNIPFTGNVKLKGIIIMGEDDDSHPSEMRLYKNIPQMSFDDTEREPDQTFSLNRDLTGELEYATKISRFSNVYHLSIHISKNFGADTTKVFYIGLRGEWTELRRHEVTICNYEASANPADHRVHQVTPQTHFIS [PITHD1] | 0.0556 | 59.5 °C | -0.108 | -1.84 | -2.51 | 56.2 °C
MVGRNSAIAAGVCGALFIGYCIYFDRKRRSDPNFKNRLRERRKKQKLAKERAGLSKLPDLKDAEAVQKFFLEEIQLGEELLAQGEYEKGVDHLTNAIAVCGQPQQLLQVLQQTLPPPVFQMLLTKLPTISQRIVSAQSLAEDDVE [TOMM20] | 0.747 | 51.7 °C | 0.294 | -2.96 | -4.96 | 49.7 °C
MSASASVGGPVPQPPPGPAAALPPGSAARALHVELPSQQRRLRHLRNIAARNIVNRNGHQLLDTYFTLHLCSTEKIYKEFYRSEVIKNSLNPTWRSLDFGIMPDRLDTSVSCFVVKIWGGKENIYQLLIEWKVCLDGLKYLGQQIHARNQNEIIFGLNDGYYGAPFEHKGYSNAQKTILLQVDQNCVRNSYDVFSLLRLHRAQCAIKQTQVTVQKIGKEIEEKLRLTSTSNELKKKSECLQLKILVLQNELERQKKALGREVALLHKQQIALQDKGSAFSAEHLKLQLQKESLNELRKECTAKRELFLKTNAQLTIRCRQLLSELSYIYPIDLNEHKDYFVCGVKLPNSEDFQAKDDGSIAVALGYTAHLVSMISFFLQVPLRYPIIHKGSRSTIKDNINDKLTEKEREFPLYPKGGEKLQFDYGVYLLNKNIAQLRYQHGLGTPDLRQTLPNLKNFMEHGLMVRCDRHHTSSAIPVPKRQSSIFGGADVGFSGGIPSPDKGHRKRASSENERLQYKTPPPSYNSALAQPVTTVPSMGETERKITSLSSSLDTSLDFSKENKKKGEDLVGSLNGGHANVHPSQEQGEALSGHRATVNGTLLPSEQAGSASVQLPGEFHPVSEAELCCTVEQAEEIIGLEATGFASGDQLEAFNCIPVDSAVAVECDEQVLGEFEEFSRRIYALNENVSSFRRPRRSSDK [UVRAG] | 0.216 | 52.4 °C | -0.117 | 0.204 | -0.16 | 51.7 °C
CBX1 | -0.629 | 52.8 °C | 0.55 | 2.04 | 1.13 | 51.2 °C
MGTQKVTPALIFAITVATIGSFQFGYNTGVINAPEKIIKEFINKTLTDKGNAPPSEVLLTSLWSLSVAIFSVGGMIGSFSVGLFVNRFGRRNSMLIVNLLAVTGGCFMGLCKVAKSVEMLILGRLVIGLFCGLCTGFVPMYIGEISPTALRGAFGTLNQLGIVVGILVAQIFGLEFILGSEELWPLLLGFTILPAILQSAALPFCPESPRFLLINRKEEENAKQILQRLWGTQDVSQDIQEMKDESARMSQEKQVTVLELFRVSSYRQPIIISIVLQLSQQLSGINAVFYYSTGIFKDAGVQEPIYATIGAGVVNTIFTVVSLFLVERAGRRTLHMIGLGGMAFCSTLMTVSLLLKDNYNGMSFVCIGAILVFVAFFEIGPGPIPWFIVAELFSQGPRPAAMAVAGCSNWTSNFLVGLLFPSAAHYLGAYVFIIFTGFLITFLAFTFFKVPETRGRTFEDITRAFEGQAHGADRSGKDGVMEMNSIEPAKETTTNV [SLC2A3] | -0.0807 | 59.1 °C | -0.0464 | -2.61 | -5.18 | 62.7 °C
MGLLRIMMPPKLQLLAVVAFAVAMLFLENQIQKLEESRSKLERAIARHEVREIEQRHTMDGPRQDATLDEEEDMVIIYNRVPKTASTSFTNIAYDLCAKNKYHVLHINTTKNNPVMSLQDQVRFVKNITSWKEMKPGFYHGHVSYLDFAKFGVKKKPIYINVIRDPIERLVSYYYFLRFGDDYRPGLRRRKQGDKKTFDECVAEGGSDCAPEKLWLQIPFFCGHSSECWNVGSRWAMDQAKYNLINEYFLVGVTEELEDFIMLLEAALPRFFRGATELYRTGKKSHLRKTTEKKLPTKQTIAKLQQSDIWKMENEFYEFALEQFQFIRAHAVREKDGDLYILAQNFFYEKIYPKSN [HS2ST1] | 0.0386 | 55.5 °C | 0.0318 | -0.242 | 0.814 | 55.1 °C
HERC1 | -0.169 | 51.3 °C | -0.126 | -0.377 | -0.404 | 51.7 °C
MSGGSADYNREHGGPEGMDPDGVIESNWNEIVDNFDDMNLKESLLRGIYAYGFEKPSAIQQRAIIPCIKGYDVIAQAQSGTGKTATFAISILQQLEIEFKETQALVLAPTRELAQQIQKVILALGDYMGATCHACIGGTNVRNEMQKLQAEAPHIVVGTPGRVFDMLNRRYLSPKWIKMFVLDEADEMLSRGFKDQIYEIFQKLNTSIQVVLLSATMPTDVLEVTKKFMRDPIRILVKKEELTLEGIKQFYINVEREEWKLDTLCDLYETLTITQAVIFLNTRRKVDWLTEKMHARDFTVSALHGDMDQKERDVIMREFRSGSSRVLITTDLLARGIDVQQVSLVINYDLPTNRENYIHRIGRGGRFGRKGVAINFVTEEDKRILRDIETFYNTTVEEMPMNVADLI [EIF4A2] | 0.106 | 51.5 °C | -0.2 | -0.202 | -1.09 | 52.1 °C
RBPJ | -0.198 | 54.4 °C | 0.039 | 0.21 | -0.976 | 54.8 °C

Source: the supplement of paper PMC5998384
